Target: soluble human PEX3 (reading frame from G25, C235S) (human) (UniProt P56589)
Assay: native MS; PEX3 and PEX19 mixed in equimolar concentrations (5-10 µM), overnight at 4°C in 20 mM sodium phosphate, 300 mM NaCl, 1 mM DTT, pH 8.0; nano-electrospray on a QToF I under conditions that preserve non-covalent interactions; complex analysed at 10 µM

Chain of UniProt P56589 (P56589 25-373 C235S): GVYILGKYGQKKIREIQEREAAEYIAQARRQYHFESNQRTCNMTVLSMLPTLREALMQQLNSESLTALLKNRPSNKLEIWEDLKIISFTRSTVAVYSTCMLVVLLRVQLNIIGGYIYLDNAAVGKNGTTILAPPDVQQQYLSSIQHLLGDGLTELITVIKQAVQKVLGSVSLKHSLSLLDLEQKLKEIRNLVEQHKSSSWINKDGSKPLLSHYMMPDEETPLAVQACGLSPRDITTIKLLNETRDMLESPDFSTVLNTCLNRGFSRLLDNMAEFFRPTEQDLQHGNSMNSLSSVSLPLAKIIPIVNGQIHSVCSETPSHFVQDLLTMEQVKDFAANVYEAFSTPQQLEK

Substance “full length human PEX19 with an N-terminal His-tag (from UniProt P56589 1-373) (natural protein)” has a stoichiometry N of 1.
